Experimental data from patent publication US20190389957A1 (SINGAPORE HEALTH SERVICES PTE, published 2019).

Experiments:
[1] = molecular target: T1, Human IL-11Rα endogenously expressed on primary human cells (human, UniProt Q14626 23-422); experiment: cell-based or functional assay
T1 sequence (looked up): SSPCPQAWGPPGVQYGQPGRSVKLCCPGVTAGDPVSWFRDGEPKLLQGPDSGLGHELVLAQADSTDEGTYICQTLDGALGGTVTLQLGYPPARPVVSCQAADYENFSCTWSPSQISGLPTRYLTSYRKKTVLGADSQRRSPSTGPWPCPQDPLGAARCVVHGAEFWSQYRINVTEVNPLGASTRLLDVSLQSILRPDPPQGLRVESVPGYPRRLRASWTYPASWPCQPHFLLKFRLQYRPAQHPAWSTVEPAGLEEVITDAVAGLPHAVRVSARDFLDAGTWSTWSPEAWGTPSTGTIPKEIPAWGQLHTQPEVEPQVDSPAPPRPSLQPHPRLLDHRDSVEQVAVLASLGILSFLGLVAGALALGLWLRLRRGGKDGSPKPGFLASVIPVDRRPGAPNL

[2] = molecular target: Tagged human IL-11Rα expressed at the surface of transiently transfected cells (human) (UniProt Q14626); experiment: flow cytometry of subcloned hybridoma supernatant on cells transiently transfected with FLAG-tagged human IL-11Rα (sheet head: 'cells transfected with pB1-IL11-hum.FL', 'flow cytometry (Attunes)'); fluorescent anti-mouse IgG secondary; negative control GMFI 930
[3] = molecular target: T2, Recombinant human IL-11Rα (Sino Biological Cat. No. 10252-H08H) (human, UniProt Q14626 23-363); experiment: SPR, BIAcore T200, multi-cycle kinetics; recombinant human IL-11Rα immobilised, antibody (IgG1 format) flowed at 50 to 1.56 nM; 1:1 model; analysis (2); Chi2 0.0356 RU2
T2 construct: Bought protein, immobilised on the chip
T2 sequence (looked up): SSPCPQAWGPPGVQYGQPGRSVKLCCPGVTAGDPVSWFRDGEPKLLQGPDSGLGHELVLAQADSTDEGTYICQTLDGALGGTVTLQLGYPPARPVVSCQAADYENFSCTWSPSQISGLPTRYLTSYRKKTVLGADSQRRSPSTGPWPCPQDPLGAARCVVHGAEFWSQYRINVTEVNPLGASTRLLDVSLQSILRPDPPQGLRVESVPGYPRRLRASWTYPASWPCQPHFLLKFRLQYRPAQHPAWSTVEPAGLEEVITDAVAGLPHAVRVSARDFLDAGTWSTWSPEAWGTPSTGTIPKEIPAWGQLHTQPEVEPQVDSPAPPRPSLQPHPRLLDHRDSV

[4] = molecular target: T3, IL-11:IL-11Rα fusion protein (hyper IL-11); experiment: cell-based or functional assay
T3 chain: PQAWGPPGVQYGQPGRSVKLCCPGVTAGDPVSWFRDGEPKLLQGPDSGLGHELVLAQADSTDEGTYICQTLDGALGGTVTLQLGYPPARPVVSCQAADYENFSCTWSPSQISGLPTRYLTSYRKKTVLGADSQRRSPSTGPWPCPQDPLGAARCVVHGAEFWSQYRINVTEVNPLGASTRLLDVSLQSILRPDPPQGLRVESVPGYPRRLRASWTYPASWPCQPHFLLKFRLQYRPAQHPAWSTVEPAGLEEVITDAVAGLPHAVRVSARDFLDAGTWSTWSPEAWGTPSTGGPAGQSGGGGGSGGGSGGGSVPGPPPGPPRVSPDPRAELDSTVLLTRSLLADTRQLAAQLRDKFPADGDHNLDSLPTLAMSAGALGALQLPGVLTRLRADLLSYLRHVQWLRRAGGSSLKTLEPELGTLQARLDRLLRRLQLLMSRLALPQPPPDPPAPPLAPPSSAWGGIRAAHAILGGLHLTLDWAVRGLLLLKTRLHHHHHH

[5] = molecular target: Tagged human IL-11Rα expressed at the surface of transiently transfected cells (human) (UniProt Q14626); experiment: same assay; by the legend the percent is the strength of binding relative to the anti-FLAG positive control (100%); negative control 3%
[6] = molecular target: T2, Recombinant human IL-11Rα (Sino …); experiment: SPR, BIAcore T200, multi-cycle kinetics; recombinant human IL-11Rα immobilised, antibody (IgG1 format) flowed at 100 to 1.56 nM; 1:1 model; analysis (1); Chi2 0.181 RU2
[7] = molecular target: T1, Human IL-11Rα endogenously expressed on …; experiment: cell-based or functional assay; remark: listed apart in the source
[8] = molecular target: T4, IL-11Rα as used in the Biacore kinetics of Example 14 (UniProt Q14626 23-363, limits assumed); experiment: SPR (Biacore T200), multi-cycle kinetics, 25 C, HBS-P+ pH 7.4 with 0.1% BSA
T4 sequence (looked up): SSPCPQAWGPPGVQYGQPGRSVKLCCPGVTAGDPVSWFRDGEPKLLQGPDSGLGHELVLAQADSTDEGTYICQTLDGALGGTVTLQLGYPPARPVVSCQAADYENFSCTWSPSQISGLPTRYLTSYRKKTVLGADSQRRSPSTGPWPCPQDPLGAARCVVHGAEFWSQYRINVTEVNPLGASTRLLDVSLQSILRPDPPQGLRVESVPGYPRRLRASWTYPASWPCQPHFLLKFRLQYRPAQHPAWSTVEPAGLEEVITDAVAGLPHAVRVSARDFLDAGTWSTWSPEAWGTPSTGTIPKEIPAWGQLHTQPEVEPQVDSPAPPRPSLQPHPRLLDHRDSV
Description: The six antibodies were assessed by multi-cycle kinetics analysis at a final concentration of 1 μg/ml, run at 25° C. with HBS-P+ running buffer (pH 7.4) containing 0.1% BSA using a Biacore T200 instrument.
The relative KD was calculated by dividing the KD of the humanised variant by that of the 9A7 antibody assayed in the same experiment. All six humanised antibodies bound to IL-11R within two-fold of 9A7 (SEQ ID NO:7 and 13).

[9] = molecular target: T5, Mouse IL-11Rα endogenously expressed on primary mouse fibroblasts (mouse, UniProt Q64385 24-432); experiment: cell-based or functional assay
T5 sequence (looked up): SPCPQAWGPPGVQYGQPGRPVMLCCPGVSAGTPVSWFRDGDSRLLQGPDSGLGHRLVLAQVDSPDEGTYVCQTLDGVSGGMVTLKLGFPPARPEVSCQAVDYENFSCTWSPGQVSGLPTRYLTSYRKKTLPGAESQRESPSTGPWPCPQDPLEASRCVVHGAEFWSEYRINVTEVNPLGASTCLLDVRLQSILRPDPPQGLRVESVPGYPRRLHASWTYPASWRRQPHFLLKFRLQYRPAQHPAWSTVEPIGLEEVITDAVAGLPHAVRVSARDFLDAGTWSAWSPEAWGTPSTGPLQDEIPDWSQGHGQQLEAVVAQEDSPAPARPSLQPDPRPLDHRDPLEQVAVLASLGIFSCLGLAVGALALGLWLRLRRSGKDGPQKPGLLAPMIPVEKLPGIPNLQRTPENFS

[10] = molecular target: T3, IL-11:IL-11Rα fusion protein (hyper …); experiment: cell-based or functional assay
[11] = molecular target: T1, Human IL-11Rα endogenously expressed on …; experiment: cell-based or functional assay; remark: listed apart in the source
[12] = molecular target: T1, Human IL-11Rα endogenously expressed on …; experiment: cell-based or functional assay; remark: listed apart in the source
[13] = molecular target: T1, Human IL-11Rα endogenously expressed on …; experiment: cell-based or functional assay; remark: listed apart in the source

IC50 of inhibition of MMP2 secretion by HSCs stimulated with TGFβ1 (5 ng/ml, 24 h) [1]: 0.0054 nM
GMFI [2]: 34800
Kd [3]: 5.46 nM
koff [3]: 0.000875 s⁻¹
kon [3]: 160000 M⁻¹ s⁻¹
IC50 of inhibition of MMP2 secretion, human atrial fibroblasts + IL-11:IL11RA (hyper IL-11) 0.2 ng/ml (panel 'MMP2 - IL-11:IL11RA - 9A7') [4]: 0.246 µg/mL
IC50 of inhibition of TIMP1 secretion, human atrial fibroblasts + IL-11:IL11RA (hyper IL-11) 0.2 ng/ml (panel 'TIMP1 - IL-11:IL11RA - 9A7') [4]: 0.196 µg/mL
% positive [5]: 111%
Kd [6]: 7.85 nM
koff [6]: 0.000759 s⁻¹
kon [6]: 96600 M⁻¹ s⁻¹
IC50 of inhibition of MMP2 secretion, primary human atrial fibroblasts + TGFβ1 (panel '9A7') [7]: 0.00588 µg/mL
Kd [8]: 4.29 nM
koff [8]: 0.000926 s⁻¹
kon [8]: 216000 M⁻¹ s⁻¹
relative KD (KD divided by KD of 9A7) [8]: 1 ratio to 9A7
IC50 of inhibition of MMP2 secretion, primary mouse cardiac fibroblasts + TGFB1 5 ng/ml (endogenous IL-11) (panel 'TGFB1-driven MMP2 secretion') [9]: 0.0146 µg/mL
IC50 of inhibition of MMP2 secretion, primary mouse cardiac fibroblasts + exogenous IL-11 2 ng/ml (panel 'IL-11-driven MMP2 secretion') [9]: 0.0292 µg/mL
IC50 of inhibition of MMP2 secretion, primary mouse cardiac fibroblasts + IL-11:IL11RA (hyper IL-11) 0.2 ng/ml (panel 'IL-11:IL11RA-driven MMP2 secretion') [10]: 0.0351 µg/mL
IC50 of inhibition of MMP2 secretion, primary human hepatic stellate cells + TGFB1 5 ng/ml (endogenous IL-11); upper panel [11]: 0.00093 µg/mL
IC50 of inhibition of MMP2 secretion, primary human hepatic stellate cells + exogenous IL-11 2 ng/ml; lower panel [11]: 0.00164 µg/mL
IC50 of inhibition of TIMP1 secretion, primary human lung fibroblasts + TGFB1 5 ng/ml (panel '9A7') [12]: 0.00229 µg/mL
IC50 of inhibition of MMP2 secretion, human atrial fibroblasts + TGFB1 5 ng/ml, 24 h (panel 'MMP2 - TGFB - 9A7') [13]: 0.082 µg/mL
IC50 of inhibition of TIMP1 secretion, human atrial fibroblasts + TGFB1 5 ng/ml, 24 h (panel 'TIMP1 - TGFB - 9A7') [13]: 0.0974 µg/mL
B1: Anti-IL-11Rα antibody clone BSO-9A7 (antibody, V domains shown)
VH: QVQLQQPGAELVRPGSSVKLSCKASGYTFTNYWMHWLKQRPVQGLEWIGNIGPSDSKTHYNQKFKDKATLTVDKSSSTAYMQLNSLTSEDSAVYYCARGDYVLFTYWGQGTLVTVSA
VL: DIVLTQSPATLSMTPGDSVSLSCRASQSISNNLHWYQQKSHESPRLLIKYASQSISGIPSRFSGSGSGTDFTLSFNSVETEDFGVYFCQQSYSWPLTFGAGTKLELK
notes: also called RA7; 9A7 VH/VL
